This is an account of results in patent US20240409906, “INTEGRASES, LANDING PAD ARCHITECTURES, AND ENGINEERED CELLS COMPRISING THE SAME” (Asimov Inc., published 2024).

What all share (conditions): tags: C-terminal GS linker-SV40 NLS
One data set addresses T1, Int9 (Staphylococcus aureus str. Newman).
T1 chain: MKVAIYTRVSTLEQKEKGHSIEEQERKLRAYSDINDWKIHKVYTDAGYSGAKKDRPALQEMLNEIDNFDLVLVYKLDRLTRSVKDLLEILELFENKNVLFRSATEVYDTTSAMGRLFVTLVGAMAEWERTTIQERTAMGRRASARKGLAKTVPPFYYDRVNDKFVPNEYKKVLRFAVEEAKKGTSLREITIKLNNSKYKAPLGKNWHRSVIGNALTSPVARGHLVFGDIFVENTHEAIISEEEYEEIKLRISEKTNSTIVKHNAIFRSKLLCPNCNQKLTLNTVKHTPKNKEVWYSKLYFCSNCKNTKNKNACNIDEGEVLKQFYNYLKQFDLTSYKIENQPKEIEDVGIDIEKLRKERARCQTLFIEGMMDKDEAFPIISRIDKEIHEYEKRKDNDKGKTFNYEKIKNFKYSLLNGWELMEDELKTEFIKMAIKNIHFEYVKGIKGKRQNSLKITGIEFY
Kind of data set: cell_activity.

A further data set concerns the target T2, Int10 (Streptococcus pneumoniae 670-6B).
T2 chain: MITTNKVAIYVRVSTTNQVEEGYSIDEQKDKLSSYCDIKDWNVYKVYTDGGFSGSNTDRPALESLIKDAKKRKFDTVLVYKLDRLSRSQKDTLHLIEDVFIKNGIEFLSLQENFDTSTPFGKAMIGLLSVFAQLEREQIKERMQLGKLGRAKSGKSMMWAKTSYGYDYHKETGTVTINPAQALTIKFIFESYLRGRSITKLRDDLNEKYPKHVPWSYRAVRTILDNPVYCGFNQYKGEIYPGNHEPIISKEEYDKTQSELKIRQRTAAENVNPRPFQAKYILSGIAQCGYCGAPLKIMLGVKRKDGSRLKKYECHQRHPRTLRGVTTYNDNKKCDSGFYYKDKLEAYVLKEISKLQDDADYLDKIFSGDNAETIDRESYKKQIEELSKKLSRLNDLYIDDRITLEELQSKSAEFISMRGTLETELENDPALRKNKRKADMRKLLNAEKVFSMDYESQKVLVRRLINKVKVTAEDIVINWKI
The data set can be described thus: cell_activity.

The target of the next data set is T3, Int3 (Streptococcus pyogenes M1 GAS (phage …)).
T3 chain: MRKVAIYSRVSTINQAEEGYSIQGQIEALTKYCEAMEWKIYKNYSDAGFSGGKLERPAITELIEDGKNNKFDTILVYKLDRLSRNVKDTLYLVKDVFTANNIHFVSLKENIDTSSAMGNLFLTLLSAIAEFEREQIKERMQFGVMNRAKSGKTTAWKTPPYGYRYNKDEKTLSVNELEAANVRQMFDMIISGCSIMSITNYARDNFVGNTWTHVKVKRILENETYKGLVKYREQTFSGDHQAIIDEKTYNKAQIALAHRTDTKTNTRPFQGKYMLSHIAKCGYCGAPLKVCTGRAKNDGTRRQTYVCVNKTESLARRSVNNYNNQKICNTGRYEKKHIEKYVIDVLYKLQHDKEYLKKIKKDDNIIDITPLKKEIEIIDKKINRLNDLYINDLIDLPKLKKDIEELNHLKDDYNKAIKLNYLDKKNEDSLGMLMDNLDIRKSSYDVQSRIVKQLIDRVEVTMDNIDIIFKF
The data set can be described thus: cell_activity.

The next data set concerns the target T4, Int8 (Staphylococcus haemolyticus JCSC1435).
T4 chain: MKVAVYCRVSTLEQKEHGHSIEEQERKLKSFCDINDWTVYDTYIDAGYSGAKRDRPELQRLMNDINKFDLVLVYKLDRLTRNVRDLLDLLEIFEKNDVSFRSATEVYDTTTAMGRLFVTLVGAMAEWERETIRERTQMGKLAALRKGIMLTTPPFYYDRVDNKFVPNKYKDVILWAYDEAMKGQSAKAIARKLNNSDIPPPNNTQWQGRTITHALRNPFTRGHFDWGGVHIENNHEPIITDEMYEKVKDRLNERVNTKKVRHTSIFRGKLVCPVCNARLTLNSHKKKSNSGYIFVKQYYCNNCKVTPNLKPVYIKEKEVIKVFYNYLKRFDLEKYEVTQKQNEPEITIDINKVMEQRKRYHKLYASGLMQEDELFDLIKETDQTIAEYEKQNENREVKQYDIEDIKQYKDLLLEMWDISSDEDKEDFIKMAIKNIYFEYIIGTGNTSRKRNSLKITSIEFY
Kind of data set: cell_activity; attB x attP EGFP inversion reporter, HEK293FT.

For another data set, the target named is T5, Int12 (Staphylococcus lugdunensis N920143).
T5 chain: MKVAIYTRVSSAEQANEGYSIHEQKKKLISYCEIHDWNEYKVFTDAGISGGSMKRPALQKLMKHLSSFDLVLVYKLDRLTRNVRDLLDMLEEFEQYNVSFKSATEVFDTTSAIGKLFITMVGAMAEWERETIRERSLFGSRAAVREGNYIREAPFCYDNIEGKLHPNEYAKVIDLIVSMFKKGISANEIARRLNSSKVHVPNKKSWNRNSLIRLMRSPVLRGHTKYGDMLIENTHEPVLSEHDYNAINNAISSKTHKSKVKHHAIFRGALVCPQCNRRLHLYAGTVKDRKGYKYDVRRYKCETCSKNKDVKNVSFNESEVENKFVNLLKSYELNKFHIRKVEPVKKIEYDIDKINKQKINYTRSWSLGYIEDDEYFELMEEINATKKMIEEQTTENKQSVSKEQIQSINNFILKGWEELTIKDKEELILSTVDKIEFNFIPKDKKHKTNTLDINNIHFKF
The data set is described as above.

The target in a further data set is Int11 (Clostridium botulinum B str. Eklund 17B). Described as above.
The next data set has as its target T6, Int2 (Streptomyces scabiei 87.22).
T6 chain: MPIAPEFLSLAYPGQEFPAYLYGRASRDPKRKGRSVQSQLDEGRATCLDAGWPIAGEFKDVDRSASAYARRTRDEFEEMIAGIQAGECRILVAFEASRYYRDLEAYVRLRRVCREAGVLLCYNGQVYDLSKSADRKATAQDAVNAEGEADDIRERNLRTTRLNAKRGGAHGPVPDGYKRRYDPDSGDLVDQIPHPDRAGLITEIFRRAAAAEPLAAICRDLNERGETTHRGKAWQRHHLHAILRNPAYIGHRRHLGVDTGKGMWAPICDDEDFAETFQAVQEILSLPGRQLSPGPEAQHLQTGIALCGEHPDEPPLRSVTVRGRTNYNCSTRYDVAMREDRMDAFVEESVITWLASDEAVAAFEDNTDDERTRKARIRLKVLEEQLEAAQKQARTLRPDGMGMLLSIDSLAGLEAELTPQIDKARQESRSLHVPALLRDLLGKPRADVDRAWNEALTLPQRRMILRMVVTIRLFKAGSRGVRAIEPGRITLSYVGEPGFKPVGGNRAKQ
The description is as above.

B1: Int9 attB (dsDNA)
DNA 1: TTTATATTGCGAAAAATAATTGGCGAACGAGGTAACTGGATACCTCATCCGCCAATTAAAATTTG
DNA 2: CAAATTTTAATTGGCGGATGAGGTATCCAGTTACCTCGTTCGCCAATTATTTTTCGCAATATAAA
For B1, in the data set with Int9, the binding signal is 0.08 fraction of Bxb1.

B2: Int10 attB (dsDNA)
DNA 1: AGCACGCTGATAATCAGCAAGACCACCAACATTTCCACCAATGTAAAAGCTTTAACCTTAGC
DNA 2: GCTAAGGTTAAAGCTTTTACATTGGTGGAAATGTTGGTGGTCTTGCTGATTATCAGCGTGCT
Regarding B2, in the data set with Int10, the binding signal was 5.49 fraction of Bxb1.

B3: Int9 attP (dsDNA)
DNA 1: GTGGTTGTTTTTGTTGGAAGTGTGTATCAGGTATCTGCATAGTTATTCCGAACTTCCAATTA
DNA 2: TAATTGGAAGTTCGGAATAACTATGCAGATACCTGATACACACTTCCAACAAAAACAACCAC
As for B3, the binding signal with Int9 was 0.08 fraction of Bxb1.

B4: Int3 attP (dsDNA)
DNA 1: ATGGATAAAAAAATACAGCGTTTTTCATGTACAACTATACTAGTTGTAGTGCCTAAATAATGCTT
DNA 2: AAGCATTATTTAGGCACTACAACTAGTATAGTTGTACATGAAAAACGCTGTATTTTTTTATCCAT
For the molecule B4, the binding signal with Int3 is 1.11 fraction of Bxb1.

B5: Int8 attP (dsDNA)
DNA 1: TTAATAAACTATGGAAGTATGTACAGTCTTGCAATGTTGAGTGAACAAACTTCCATAATAAAAT
DNA 2: ATTTTATTATGGAAGTTTGTTCACTCAACATTGCAAGACTGTACATACTTCCATAGTTTATTAA
For B5, in the data set with Int8, the binding signal is 0.068 fraction of Bxb1.

B6: Int12 attP (dsDNA)
DNA 1: TTTTTGTATGTTAGTTGTGTCACTGGGTAGACCTAAATAGTGACACAACTGCTATTAAAATTTAA
DNA 2: TTAAATTTTAATAGCAGTTGTGTCACTATTTAGGTCTACCCAGTGACACAACTAACATACAAAAA
With B6, the binding signal with Int12 was 0.821 fraction of Bxb1.

B7: Int3 attB (dsDNA)
DNA 1: GTTTGTAAAGGAGACTGATAATGGCATGTACAACTATACTCGTCGGTAAAAAGGCATCTTAT
DNA 2: ATAAGATGCCTTTTTACCGACGAGTATAGTTGTACATGCCATTATCAGTCTCCTTTACAAAC
As for B7, in the data set with Int3, the binding signal is 1.11 fraction of Bxb1.

B8: Int11 attP (dsDNA)
DNA 1: GTTTATATGTTTACTAATAAGACGCTCTCAACCCATAAAGTCTTATTAGTAAACATATTTCAACT
DNA 2: AGTTGAAATATGTTTACTAATAAGACTTTATGGGTTGAGAGCGTCTTATTAGTAAACATATAAAC
As to B8, the binding signal with Int11 is 1.81 fraction of Bxb1.

B9: Int2 attB (dsDNA)
DNA 1: GGACGGCGCAGAAGGGGAGTAGCTCTTCGCCGGACCGTCGACATACTGCTCAGCTCGTC
DNA 2: GACGAGCTGAGCAGTATGTCGACGGTCCGGCGAAGAGCTACTCCCCTTCTGCGCCGTCC
For the molecule B9, the binding signal with Int2 was 0.17 fraction of Bxb1.

B10: Int10 attP (dsDNA)
DNA 1: GGAAAATATAAATAATTTTAGTAACCTACATCTCAATCAAGGATAGTAAAACTCTCACTCTT
DNA 2: AAGAGTGAGAGTTTTACTATCCTTGATTGAGATGTAGGTTACTAAAATTATTTATATTTTCC
Consider B10, for which the binding signal with Int10 is 5.49 fraction of Bxb1.

B11: Int8 attB (dsDNA)
DNA 1: CAATCATCAGATAACTATGGCGGCACGTGCATTAACCACGGTTGTATCCCGTCTAAAGTACTCGT
DNA 2: ACGAGTACTTTAGACGGGATACAACCGTGGTTAATGCACGTGCCGCCATAGTTATCTGATGATTG
For the molecule B11, the binding signal in the data set with Int8 was 0.068 fraction of Bxb1.

B12: Int11 attB (dsDNA)
DNA 1: ATGGATTTTGCAGATTCCCAGATGCCCCTACAGAAAGAGGTACAAAACATTTATTGGAATTAATT
DNA 2: AATTAATTCCAATAAATGTTTTGTACCTCTTTCTGTAGGGGCATCTGGGAATCTGCAAAATCCAT
Take B12: in the data set with Int11, the binding signal was 1.81 fraction of Bxb1.

B13: Int12 attB (dsDNA)
DNA 1: GTTCGTGGTAACTATGGGTGGTACAGGTGCCACATTAGTTGTACCATTTATGTTTATGTGGTTAAC
DNA 2: GTTAACCACATAAACATAAATGGTACAACTAATGTGGCACCTGTACCACCCATAGTTACCACGAAC
Consider B13, for which the binding signal in the data set with Int12 was 0.821 fraction of Bxb1.

B14: Int2 attP (dsDNA)
DNA 1: GCTCATGTATGTGTCTACGCGAGATTCTCGCCCGAGAACTTCTGCAAGGCACTGCTCTTGGCT
DNA 2: AGCCAAGAGCAGTGCCTTGCAGAAGTTCTCGGGCGAGAATCTCGCGTAGACACATACATGAGC
On to B14, for which the binding signal with Int2 was 0.17 fraction of Bxb1.
